The experiment addresses Mannose/N-acetylglucosamine (Man/GlcNAc) receptor on thioglycolate-elicited mouse peritoneal macrophages (mouse) (UniProt Q61830). Put plainly: cell-based or functional assay.

Chain of Mannose/N-acetylglucosamine (Man/GlcNAc) receptor on thioglycolate-elicited mouse peritoneal macrophages (mouse) (Q61830 20-1456): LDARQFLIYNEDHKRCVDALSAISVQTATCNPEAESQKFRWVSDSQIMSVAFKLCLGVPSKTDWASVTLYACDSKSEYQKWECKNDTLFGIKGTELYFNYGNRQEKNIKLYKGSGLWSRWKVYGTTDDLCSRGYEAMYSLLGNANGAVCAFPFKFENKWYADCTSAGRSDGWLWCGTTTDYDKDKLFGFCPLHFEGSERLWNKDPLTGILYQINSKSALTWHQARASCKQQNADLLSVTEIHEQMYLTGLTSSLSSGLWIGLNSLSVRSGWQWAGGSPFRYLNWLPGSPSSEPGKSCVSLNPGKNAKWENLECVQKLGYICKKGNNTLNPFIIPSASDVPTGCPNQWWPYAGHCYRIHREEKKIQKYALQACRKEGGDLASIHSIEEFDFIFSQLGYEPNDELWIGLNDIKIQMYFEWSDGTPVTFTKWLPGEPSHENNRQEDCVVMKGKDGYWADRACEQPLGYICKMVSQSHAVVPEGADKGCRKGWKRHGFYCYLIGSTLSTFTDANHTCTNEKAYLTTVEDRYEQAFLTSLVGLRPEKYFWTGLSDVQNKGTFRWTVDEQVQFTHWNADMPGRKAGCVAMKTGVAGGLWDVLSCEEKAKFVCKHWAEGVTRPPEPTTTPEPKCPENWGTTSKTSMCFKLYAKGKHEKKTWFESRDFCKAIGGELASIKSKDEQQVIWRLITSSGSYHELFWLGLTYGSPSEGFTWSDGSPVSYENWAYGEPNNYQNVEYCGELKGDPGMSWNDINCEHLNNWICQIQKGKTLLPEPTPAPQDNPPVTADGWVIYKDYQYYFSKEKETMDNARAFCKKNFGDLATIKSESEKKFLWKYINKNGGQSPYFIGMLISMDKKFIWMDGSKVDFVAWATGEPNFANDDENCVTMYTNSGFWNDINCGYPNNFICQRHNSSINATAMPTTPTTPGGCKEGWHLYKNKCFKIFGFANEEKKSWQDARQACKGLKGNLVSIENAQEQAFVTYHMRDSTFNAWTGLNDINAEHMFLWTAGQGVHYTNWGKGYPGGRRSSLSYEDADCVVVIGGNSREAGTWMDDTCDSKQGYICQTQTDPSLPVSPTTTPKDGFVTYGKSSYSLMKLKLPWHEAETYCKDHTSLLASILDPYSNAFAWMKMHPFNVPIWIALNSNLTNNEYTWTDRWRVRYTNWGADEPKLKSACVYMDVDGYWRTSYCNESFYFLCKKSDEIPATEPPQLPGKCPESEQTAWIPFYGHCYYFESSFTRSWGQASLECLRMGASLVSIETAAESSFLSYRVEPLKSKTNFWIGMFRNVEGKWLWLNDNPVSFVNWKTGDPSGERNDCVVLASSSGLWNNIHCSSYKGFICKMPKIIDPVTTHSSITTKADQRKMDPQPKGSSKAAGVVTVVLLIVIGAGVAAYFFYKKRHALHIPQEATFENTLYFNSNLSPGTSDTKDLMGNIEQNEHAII

“Cerezyme (commercial recombinant human GCD produced in mammalian CHO cells) (from UniProt P04062 40-536) (enzyme)”: the percent of specific activity from total activity, inhibited by 4 mg/ml mannan amounted to 65%.

Source of the values: patent publication US20100196345A1.
